Results from patent US8652790B2, “Conformational entropy in molecular recognition” (The Trustees of the University of Pennsylvania, priority 2007, dated 2014).

What was measured:
calmodulin [1] = molecular target: T1, calmodulin (Homo sapiens, UniProt P0DP23); assay: NMR relaxation: backbone dynamics (order parameters) of calmodulin in complex with target domains; conditions: average ± standard deviation, 35° C.; for <O^2NH>: N—H bond vectors of calmodulin in complex; for <O^2CαCO>: CO—Cα bond vectors of calmodulin in complex
From the text: The sub-nanosecond (sub-ns) dynamics of the polypeptide backbone of calmodulin in the six complexes were probed using NMR relaxation techniques. The degree of spatial restriction of each motional probe was assigned a number between 0, corresponding to complete isotropic disorder, and 1, corresponding to a fixed orientation in the molecular frame. This parameter is the squared generalized order parameter (O^2) as it applies to the amide N—H bond (O^2NH), the Cα—C′ bond (O^2cαcO) and the methyl symmetry axis (O^2axis). O^2NH parameters at amide nitrogen sites were obtained from measurements of ^15N dipolar relaxation. Farrow, N. A. et al. Backbone dynamics of a free and a phosphopeptide-complexed Src homology-2 domain studied by ^15N NMR relaxation. Biochemistry 33, 5984-6003 (1994). O^2cαcO parameters were obtained from measurement of transverse cross-correlated relaxation between ^13CO chemical shift anisotropy and the ^13CO—^13Cα dipolar interactions. Wang, T., Cai, S. & Zuiderweg, E. R. Temperature dependence of anisotropic protein backbone dynamics. J. Am. Chem. Soc. […] The motion of methyl groups (O^2axis) of calmodulin side chains were characterized using ^2H spin relaxation methods. Muhandiram, D. R. et al. Measurement of H-2 T-1 and T-1p relaxation-times in uniformly C-13-Labeled and fractionally H-2-labeled proteins in solution. J. Am. Chem. Soc. 117, 11536-11544 (1995).
O^2axis parameters were determined from T1 and T1p deuterium relaxation (Muhandiram, D. R. et al. Measurement of H-2 T-1 and T-1p relaxation-times in uniformly C-13-Labeled and fractionally H-2-labeled proteins in solution. J. Am. Chem. Soc. 117, 11536-11544 (1995)) measured at two magnetic fields. Rotational correlation times and O^2NH were determined from ^15N relaxation (Farrow, N. A. et al. Backbone dynamics of a free and a phosphopeptide-complexed Src homology-2 domain studied by ^15N NMR relaxation. Biochemistry 33, 5984-6003 (1994)) obtained at two magnetic fields. O^2CαCO parameters were determined by transverse cross-correlated relaxation. Wang, T., Cai, S. & Zuiderweg, E. R. Temperature dependence of anisotropic protein backbone dynamics. J. Am. Chem. Soc. […] All measurements were made at 35° C. Model-free parameters (Lipari, G. & Szabo, A. Model-free approach to the interpretation of nuclear magnetic-resonance relaxation in macromolecules. 1. Theory and range of validity. J. Am. Chem. Soc. 104, 4546-4559 (1982)) were determined using a grid search approach (Dellwo, M J. & Wand, A. J. Model-independent and model-dependent analysis of the global and internal dynamics of cyclosporine-A. J. Am. Chem. Soc. 111, 4571-4578 (1989)) using a quadrupolar coupling constant of 167 kHz, an effective N—H bond length of 1.04 Å and ^15N tensor breadth of 170 p.p.m. […] The model-free parameters have been deposited in the Biological Magnetic Resonance Data Bank (“BioMagResBank,” Eldon L. Ulrich; Hideo Akutsu; Jurgen F. Doreleijers; Yoko Harano; Yannis E. Ioannidis; Jundong Lin; Miron Livny; Steve Mading; Dimitri Maziuk; Zachary Miller; Eiichi Nakatani; Christopher F. Schulte; David E. Tolmie; R. Kent Wenger; Hongyang Yao; John L. Markley; Nucleic Acids Research 36, D402-D408 (2007) doi: 10.1093/nar/gkm957).

calmodulin [2] = molecular target: T1, calmodulin; assay: Uncalibrated estimate of conformational entropy of binding from methyl group dynamics of CaM and target domain; parameters: made in house; conditions: for Δ O^2axis Target: O^2axis of 0.101 assumed for the free target domain; for Δ O^2axis CaM: free CaM is the reference state; for ΔSfast^conf: harmonic oscillator plus fast minor rotamer states; for ΔStotal^conf: includes classical term from slow-exchange minor cross peaks; for Normalized Δ O^2axis: normalized to number of amino acids in calmodulin (148) and target domain
From the text: Using deuterium NMR relaxation methods, fast motion of the methyl-bearing side-chains of the target domains in the six CaM complexes were examined. Muhandiram, D. R. et al., Measurement of H-2 T-1 and T-1p relaxation-times in uniformly C-13-Labeled and fractionally H-2-labeled proteins in solution. J. Am. Chem. Soc. 117, 11536-11544 (1995).
Initially estimates of the conformational entropy of the target domains to the free energy of binding to CaM was obtained using the simple harmonic oscillator model. Li, Z., Raychaudhuri, S., & Wand, A. J., Insights into the local residual entropy of proteins provided by NMR relaxation. Prot. Sci. 5, 2647-2650 (1996). It is assumed that the dynamics of the free unstructured target domain are uniform and correspond to an O^2axis of 0.1. […] This was estimated using a previously described model. Lee, A. L. et al., Temperature dependence of the internal dynamics of a calmodulin peptide complex. Biochemistry 41, 13814-13825 (2002). […] Such heterogeneity would correspond to conformational entropy contributed by states that are not averaged on the NMR chemical shift timescale.
To compare dynamics in the various complexes, we employ a normalization procedure to account for variation in the number of methyl sites in CaM whose motion could be quantified and to account for the fact that, although fully resolved, the number of residues in the target domains ranges between 20 and 26. A simple average was employed. The apparent change in conformational entropy was then calculated as above. To complete the solution of equation (5), the binding entropies obtained by isothermal titration calorimetry were used and calculated the change in solvent entropy using the known structures of free CaM and the five complexes. Kainosho, M. et al., Optimal isotope labelling for NMR protein structure determinations. Nature 440, 52-57 (2006); Aoyagi, M et al., Structural basis for endothelial nitric oxide synthase binding to calmodulin. The EMBO journal 22, 766-775 (2003); Meador, W. E., Means, A. R., & Quiocho, F. A., Target enzyme recognition by calmodulin: 2.4 A structure of a calmodulin-peptide complex. […] Nat. Struct. Biol. 6, 819-824 (1999); Valentine, K. G. et al., The crystal structure and internal dynamics of calmodulin complexed with the calmodulin binding domain of neuronal nitric oxide synthase. Biochemistry, submitted (2007). The empirically determined relationship between changes in accessible surface area and the entropy of solvent is employed. Hilser, V. J. et al., A statistical thermodynamic model of the protein ensemble. Chem. Rev. 106, 1545-1558 (2006). The change in solvent entropy by assuming an extended fully solvated structure for the dissociated domains (see Methods) was calculated. […] Gaboriaud, C. et al., Hydrophobic cluster analysis: an efficient new way to compare and analyse amino acid sequences. FEBS letters 224, 149-155 (1987). […] The surface area of a sphere of equivalent volume of the side-chains in the putative hydrophobic cluster was used as a basis for the solvent entropy calculation. A further correction for the reduction in conformational entropy of the compact free CaMKKα(p) target domain was also applied (see Methods). […] Marlow, M. S. & Wand, A. J., Conformational dynamics of calmodulin in complex with the calmodulin-dependent kinase kinase alpha calmodulin-binding domain. Biochemistry 45, 8732-8741 (2006).

| Substance | <O^2NH> (calmodulin [1]) | <O^2CαCO> (calmodulin [1]) | Δ O^2axis Target (calmodulin [2]) | Δ O^2axis CaM (calmodulin [2]) | ΔSfast^conf (calmodulin [2]) | ΔStotal^conf (calmodulin [2]) | Normalized Δ O^2axis (calmodulin [2]) |
| --- | --- | --- | --- | --- | --- | --- | --- |
| AKSKWKQAFNATAVVRHMRKLQ (listed as Homo sapiens) [CaMKI(p)] | 0.94 ± 0.08 | 0.88 ± 0.14 | 0.555 | 0.107 | 252.260 kJ/mol | 264.150 kJ/mol | 28.046 |
| (COOH-FPNGFSRKRLMSKVLIVTTWSPLL [CaMKKα(p)] | 0.93 ± 0.08 | 0.79 ± 0.21 | 0.329 | 0.096 | 202.054 kJ/mol | 208.354 kJ/mol | 22.632 |
| RKKTFKEVANAVKISASLMG [eNOS(p)] | – | – | 0.567 | 0.081 | 210.363 kJ/mol | 223.863 kJ/mol | 23.328 |

Next, values leading:

| <O^2NH> (calmodulin [1]) | <O^2CαCO> (calmodulin [1]) | Δ O^2axis Target (calmodulin [2]) | Δ O^2axis CaM (calmodulin [2]) | ΔSfast^conf (calmodulin [2]) | ΔStotal^conf (calmodulin [2]) | Normalized Δ O^2axis (calmodulin [2]) | Substance |
| --- | --- | --- | --- | --- | --- | --- | --- |
| 0.92 ± 0.06 | – | – | – | – | – | – | QTEKMWQRLKGILRSLVKQ [PDE(p)] |
| 0.92 ± 0.08 | 0.85 ± 0.16 | 0.528 | 0.049 | 173.864 kJ/mol | 195.564 kJ/mol | 19.396 | KRRAIGFKKLAEAVKFSAKLMGQ [nNOS(p)] |
